Test results reported in patent US20220332769A1.

Legend:
Assay in all cases: cell-based or functional assay
[1] = target: Spike protein of live SARS CoV-2 virus (original USA-WA1/2020 strain) (SARS CoV-2) (UniProt P0DTC2)
[2] = target: SARS CoV-1 spike on pseudotyped lentivirus (CoV-1 PVP) (SARS CoV-1) (UniProt P59594)
[3] = target: MERS spike on pseudotyped lentivirus (MERS-PVP) (MERS coronavirus) (UniProt K9N5Q8)

Substance: ACE2-VGTM MVP (decoy multivalent particle displaying ACE2 fused with VSVG transmembrane domain)
- IC50, live CoV-2 virus microneutralization assay [1]: 57 pM
- IC50, live virus PRNT assay, USA-WA1/2020 strain [1]: 0.98 pM
- reduction of viral titer, live CoV-2 virus microneutralization assay [1]: > 6 logs
- IC50, CoV-1 pseudovirus microneutralization assay, 293T/ACE2 target cells [2]: 0.13 pM
- IC50, CoV-1 pseudovirus neutralization assay, VERO-E6 target cells [2]: 0.44 pM

Substance: NA75-DPP4 MVP (DPP4 extracellular domain fused to influenza neuraminidase N-terminus and transmembrane regions) (from UniProt P27487 30-766)
- IC50, MERS pseudovirus neutralization assay, H1650 target cells [3]: 0.87 pM

Substance: HCΔ-DPP4 MVP (decoy multivalent particle displaying DPP4 extracellular domain fused to measles HCΔ18)
- IC50, MERS pseudovirus microneutralization assay, H1650 target cells [3]: 2.96 pM

Substance: Recombinant DPP4 protein (from UniProt P27487 39-766) (receptor)
- IC50, MERS pseudovirus microneutralization assay, H1650 target cells [3]: > 48000 pM
